Here are results for two substances from patent publication US20260226500A1.

Assay [1] concerns the target OT-1 TCR (OVA-restricted T cell receptor) (mouse).
The target of assay [2] is P14 TCR (gp33-specific T cell receptor) (mouse).

“And” between values parts separate entries of the source, which are not always exact repeats. Equal values may be shown once.

Sequence of P14 TCR (gp33-specific T cell receptor) (mouse) (chain, as listed by the source limits assumed): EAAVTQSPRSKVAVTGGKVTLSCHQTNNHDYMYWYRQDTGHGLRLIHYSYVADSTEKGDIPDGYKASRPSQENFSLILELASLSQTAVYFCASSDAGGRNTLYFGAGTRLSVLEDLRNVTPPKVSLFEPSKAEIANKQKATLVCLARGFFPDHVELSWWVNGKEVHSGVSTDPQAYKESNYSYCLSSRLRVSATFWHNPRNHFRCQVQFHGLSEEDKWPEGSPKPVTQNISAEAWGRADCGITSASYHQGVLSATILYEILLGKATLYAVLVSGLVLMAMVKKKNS
Sequence of OT-1 TCR (OVA-restricted T cell receptor) (mouse) (chain, as listed by the source limits assumed, chain 1 of 2): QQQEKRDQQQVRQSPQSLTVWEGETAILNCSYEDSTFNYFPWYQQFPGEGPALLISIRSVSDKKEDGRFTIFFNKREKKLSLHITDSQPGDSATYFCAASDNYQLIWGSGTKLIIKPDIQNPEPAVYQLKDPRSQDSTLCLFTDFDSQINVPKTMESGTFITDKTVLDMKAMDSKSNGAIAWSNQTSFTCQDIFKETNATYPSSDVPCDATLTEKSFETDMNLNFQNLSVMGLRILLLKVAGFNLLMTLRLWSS
Sequence of OT-1 TCR (OVA-restricted T cell receptor) (mouse) (chain, as listed by the source limits assumed, chain 2 of 2): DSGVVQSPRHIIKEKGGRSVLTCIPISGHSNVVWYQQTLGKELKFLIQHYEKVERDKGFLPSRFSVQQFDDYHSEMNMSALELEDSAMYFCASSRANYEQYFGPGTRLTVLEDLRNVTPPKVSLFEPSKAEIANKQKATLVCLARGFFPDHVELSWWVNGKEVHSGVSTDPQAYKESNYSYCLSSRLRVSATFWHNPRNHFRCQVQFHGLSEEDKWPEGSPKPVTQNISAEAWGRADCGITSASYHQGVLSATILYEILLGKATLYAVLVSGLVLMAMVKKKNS

Turning to OVA Pentamer (peptide-MHC), in assay [1], the percent OVA Pentamer+ GFP+ cells (Q2) (% (unit not given)) is 6.66 and the percent OVA Pentamer+ GFP- cells (Q3, upper left quadrant) (% (unit not given)) worked out at 26.

Consider P14 TCR (y-axis stain) (antibody), for which the percent P14 TCR+ GFP- cells (Q1) (% (unit not given)) in assay [2] was 89.5 and 96.7 and 36.5.
